{"source": "patent US20120117691", "about": "“TRANSCRIPTION FACTORS FOR MODIFICATION OF LIGNIN CONTENT IN PLANTS” (The Samuel Roberts Noble Foundation, Inc., published 2012)", "key": {"[1]": {"target": "T1, AtWRKY12 (Arabidopsis thaliana, UniProt Q93WY4 SEQ:1-218)", "T1 sequence (Q93WY4 whole entry, the tested form may be a part)": "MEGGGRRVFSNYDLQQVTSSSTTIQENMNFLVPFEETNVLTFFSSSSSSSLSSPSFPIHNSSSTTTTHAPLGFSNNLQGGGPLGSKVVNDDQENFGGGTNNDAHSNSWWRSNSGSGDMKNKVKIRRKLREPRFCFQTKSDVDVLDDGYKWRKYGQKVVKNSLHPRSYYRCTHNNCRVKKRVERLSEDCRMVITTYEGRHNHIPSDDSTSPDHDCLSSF", "test": "EMSA; 100 ng protein, 20 min, Pierce EMSA kit buffer", "conditions": "tags: MBP fusion, expressed in E. coli, amylose resin purified; label: 5' biotin on one strand", "source_text": "(§1) To express the recombinant AtWRKY12 protein, the coding sequence was fused in frame with maltose binding protein (MBP), expressed in E. coli, and the recombinant protein was purified using amylose resin. The pure protein was used for EMSA with the NST2 or C3H promoter fragments. Double-strand probe and competitor fragments were made from annealing of separately synthesized strands, with/without one 5′ biotin labeled strand. The sequence used for NST2 was:\n(§2) For C3H the sequence was: 5′-[…]-3′ (SEQ ID NO:42); and for C3HL the sequence was 5′-[…]-3′ (SEQ ID NO:43). The conserved WRKY binding motifs are underlined. The biotin-labeled and competitor DNA fragments were incubated for 20 min with 100 ng of AtWRKY12-MBP in binding buffer according to the EMSA kit protocol (Pierce, Rockford, Ill.), and reaction mixtures were loaded for polyacrylamide gel electrophoresis. The DNA was electroblotted onto nitrocellulose membrane and detected by the chemiluminescent method."}, "[2]": {"target": "T1, AtWRKY12", "test": "EMSA; 100 ng protein, 20 min; no binding detected", "conditions": "tags: MBP fusion, expressed in E. coli, amylose resin purified; label: 5' biotin on one strand", "source_text": "as §1, §2"}}}
{"binder": "NST2 promoter fragment (dsDNA) DNA 1: AAAGAGACCATTAGTATATTTGACCCAAAAAAAAATAAAAAAAAAAGAG DNA 2: CTCTTTTTTTTTTATTTTTTTTTGGGTCAAATATACTAATGGTCTCTTT", "values": [{"measurement": "binding result", "setting": "[1]", "value": "binds"}]}
{"binder": "C3H14 promoter fragment (dsDNA) DNA 1: TGGAAGATGCATGTTATTGACTAAATATGATCTACCA DNA 2: TGGTAGATCATATTTAGTCAATAACATGCATCTTCCA", "values": [{"measurement": "binding result", "setting": "[2]", "value": "no binding"}]}
{"binder": "C3H14L promoter fragment (dsDNA) DNA 1: TGGCTTAAATCATATTGACAAGACCCATTAAAAAGAGG DNA 2: CCTCTTTTTAATGGGTCTTGTCAATATGATTTAAGCCA", "values": [{"measurement": "binding result", "setting": "[2]", "value": "no binding"}]}
